What was measured:
Type in all cases: biochemical
[1] = Screening of AS single mutant library for glucosylation of α-L-Rhap-OMe (HPLC); conditions: FIG. 6
Method: The protocol was established to enable the rapid identification of clones able to glucosylate α-L-Rhap-OMe (formula II). To obtain higher amounts of enzymes and facilitate detection of glucosylated compounds upon HPLC screening, mutants were produced in 96-DeepWell Format plates. Storage microplates containing monomutants were thawed and replicated to inoculate a starter culture in 96-well microplates containing, in each well, 150 μL LB medium supplemented with ampicillin (100 μg/mL). After growth for 24 h at 30° C. under agitation (200 rpm), plates were duplicated into 96-Deep Well plates containing, in each well, 1.1 mL LB medium supplemented with ampicillin (100 μg/mL) and IPTG (1 mM) to induce GST-AS expression. Cultures were then grown for 24 h at 30° C. under agitation (200 rpm). […]
Efficiency of the glucosylation reaction was evaluated by HPLC analysis of the acceptor reaction product synthesized when using α-L-Rhap-OMe as acceptor using a Dionex P 680 series pump, a Shodex RI 101 series refractometer, a Dionex UVD 340 UV/Vis detector and an autosampler HTC PAL. […]
For each of the 7 selected positions, 19 single mutants were generated (corresponding to each possible amino acid change). […] Both sucrose consumption and disaccharide formation were determined in order to calculate the glucosylation rate defined as the molar ratio of monoglucosylated acceptor versus/sucrose consumed.

[2] = Enzymatic glucosylation of α-L-Rhap-OAll by 1G5A mutants; conditions: sucrose donor and α-L-Rhap-OAll acceptor 1:1, 50 mM
Method: (§1) The enzymatic reaction was carried out using sucrose as donor and rhamnose derivative as acceptor in a 1:1 ratio (146 mM for L-Rhap, 50 mM for α-L-Rhap-OAll).
(§2) Efficiency of the glucosylation reaction was evaluated by HPLC analysis of the acceptor reaction product synthesized using a reversed phase analytical column (Synergi C18RPFusion, 4 μm, 30×4.6 mm) (when testing L-Rhap) and a Biorad HPLC Carbohydrate Analysis column (HPX-87K column (300×7.8 mm)) when testing α-L-Rhap-OAll. (cf. Example 1/Materials and Methods/Screening of mutant library)

[3] = Enzymatic glucosylation of L-Rhap by 1G5A mutants; conditions: sucrose donor and L-Rhap acceptor 1:1, 146 mM
Method: as §1, §2

[4] = Determination of kinetic parameters (catalytic efficiency) of ASNPwt and I228Y; conditions: for activation in the presence of α-L-RhapO-Me: increasing concentration of acceptor, FIG. 7D(b), 7E
Method: Catalytic efficiency (Eff=kcat/KM) of ASNPwt and I228Y variant were determined with both sucrose (D=Donor) and methyl α-L-rhamnopyranoside (A=Acceptor) as variable substrates. For the determination of the catalytic efficiency for D, A was held constant at 250 mM and D was varied between 0 and 600 mM. For the determination of the catalytic efficiency for A, D was held constant at 250 mM and A was varied between 0 and 500 mM. Experiments were performed until A and D solubility limits were reached. For each experiment, two distinct reaction velocities were determined: (1) the donor consumption determined by the release of fructose (called Vi (F)), corresponding to the overall kinetics of the different reactions described in FIG. 3 and (2) the acceptor glucosylation determined by the formation of α-D-Glcp-(1→3)-α-L-RhapOMe (called Vi(Dp2)), corresponding to the kinetics of the reaction of interest.
Initial velocities were fitted to the Michaelis-Menten equation using Sigma-Plot. As saturation was not achieved with the mutant, efficiency was calculated by linear regression analysis of the velocity versus substrate concentration plot. Aliquots (200 μL) were removed between 0 and 60 min (at which time product formation was still linear with respect to time), heated at 95° C. for 5 min and centrifuged at 18 000 g for 5 min. The final mixtures were filtered on a 0.22 μm membrane and analyzed using HPLC material previously described. HPLC analyses were performed using two columns: 1) a Biorad HPLC Carbohydrate Analysis column (HPX-87H column (300×7.8 mm)) maintained at 30° C., using ultra-pure water as eluent with a flow rate of 0.6 mL/min; 2) a reversed phase analytical column (Synergi C18RPFusion, 4 μm, 30×4.6 mm) kept at room temperature, with 1 ml/min of ultra-pure water as eluent. HPX-87H column was used to determine the released fructose by RI detection. C18RPfusion column was used to detect the formation of α-D-Glcp-(1→3)-α-L-RhapOMe.

[5] = Comparison of products synthesized by wild type and AS variant I228Y (HPAEC/HPLC); conditions: for recognition of α-L-RhapO-Me as an acceptor: purified enzyme, HPLC, FIG. 7A
Method: All assays were performed at 30° C. in 50 mM Tris buffer, pH=7.0.
Comparison of products synthesized by wild type and AS variant. Reactions were performed in the presence of 146 mM sucrose alone or supplemented with 146 mM acceptor. The purified wild-type or mutated GST/AS were employed at 0.5 U/mL. The reactions were stopped by heating at 95° C. for […]. The final mixture was centrifuged at 18 000 g for 5 min.
Soluble and insoluble oligosaccharides produced during the reaction were identified by HPAEC using a Dionex Carbo-Pack PA100 column at 30° C. Before analysis, the insoluble fraction was solubilised in KOH at a final total sugar concentration of 10 g/kg. Mobile phase (150 mM NaOH) was set at 1 mL/min flow rate with a sodium acetate gradient (going from 6 to 500 mM within 120 min). Detection was performed using a Dionex ED40 module with a gold working electrode and an Ag/AgCl pH reference. Note that α-L-Rhap-OMe (acceptor) and its derivatives are not oxidable products and thus are not detectable by HPAEC. Sucrose, glucose, fructose, α-L-Rhap-OMe (acceptor) and its derivatives (glucosylation products) were quantified by HPLC, as previously described.

[6] = 146 mM sucrose supplemented with 146 mM acceptor

B1: wild type AS: Wild type glycoside hydrolase: amylosucrase (ASNPwt) 1G5A of sequence SEQ ID NO: 13, from Neisseria polysaccharea (protein, listed as Neisseria polysaccharea)
chain: SPNSQYLKTRILDIYTPEQRAGIEKSEDWRQFSRRMDTHFPKLMNELDSVYGNNEALLPMLEMLLAQAWQSYSQRNSSLKDIDIARENNPDWILSNKQVGGVCYVDLFAGDLKGLKDKIPYFQELGLTYLHLMPLFKCPEGKSDGGYAVSSYRDVNPALGTIGDLREVIAALHEAGISAVVDFIFNHTSNEHEWAQRCAAGDPLFDNFYYIFPDRRMPDQYDRTLREIFPDQHPGGFSQLEDGRWVWTTFNSFQWDLNYSNPWVFRAMAGEMLFLANLGVDILRMDAVAFIWKQMGTSCENLPQAHALIRAFNAVMRIAAPAVFFKSEAIVHPDQVVQYIGQDECQIGYNPLQMALLWNTLATREVNLLHQALTYRHNLPEHTAWVNYVRSHDDIGWTFADEDAAYLGISGYDHRQFLNRFFVNRFDGSFARGVPFQYNPSTGDCRVSGTAAALVGLAQDDPHAVDRIKLLYSIALSTGGLPLIYLGDEVGTLNDDDWSQDSNKSDDSRWAHRPRYNEALYAQRNDPSTAAGQIYQDLRHMIAVRQSNPRFDGGRLVTFNTNNKHIIGYIRNNALLAFGNFSEYPQTVTAHTLQAMPFKAHDLIGGKTVSLNQDLTLQPYQVMWLEIA
- recognition of α-L-Rhap-OMe as acceptor / ability to form the desired disaccharide [1]: does not recognize the α-L-RhapO-Me as an acceptor
- ability to glucosylate α-L-Rhap-OAll [2]: lacks this newly described specific activity
- glucosylation of L-rhamnose with α-(1→3) linkage [3]: lacks this newly described specific activity
- activation in the presence of α-L-RhapO-Me [4]: no activation
- catalytic efficiency ([4]; sucrose constant 250 mM, varied acceptor concentration): null catalytic efficiency
- Vi(Dp2) (acceptor glucosylation velocity) ([4]; sucrose constant 250 mM, varied acceptor concentration, FIG. 7E): 0
- effect of the presence of α-L-RhapO-Me in the reaction medium on the product profile [5, 6]: does not affect the product profile
- recognition of α-L-RhapO-Me as an acceptor [5, 6]: does not recognize at all α-L-RhapO-Me as an acceptor

B2: I228Y: 1G5A (N. polysaccharea amylosucrase, SEQ ID NO: 13) single mutant, isoleucine 228 replaced by tyrosine (protein, listed as Neisseria polysaccharea)
chain: SPNSQYLKTRILDIYTPEQRAGIEKSEDWRQFSRRMDTHFPKLMNELDSVYGNNEALLPMLEMLLAQAWQSYSQRNSSLKDIDIARENNPDWILSNKQVGGVCYVDLFAGDLKGLKDKIPYFQELGLTYLHLMPLFKCPEGKSDGGYAVSSYRDVNPALGTIGDLREVIAALHEAGISAVVDFIFNHTSNEHEWAQRCAAGDPLFDNFYYIFPDRRMPDQYDRTLREYFPDQHPGGFSQLEDGRWVWTTFNSFQWDLNYSNPWVFRAMAGEMLFLANLGVDILRMDAVAFIWKQMGTSCENLPQAHALIRAFNAVMRIAAPAVFFKSEAIVHPDQVVQYIGQDECQIGYNPLQMALLWNTLATREVNLLHQALTYRHNLPEHTAWVNYVRSHDDIGWTFADEDAAYLGISGYDHRQFLNRFFVNRFDGSFARGVPFQYNPSTGDCRVSGTAAALVGLAQDDPHAVDRIKLLYSIALSTGGLPLIYLGDEVGTLNDDDWSQDSNKSDDSRWAHRPRYNEALYAQRNDPSTAAGQIYQDLRHMIAVRQSNPRFDGGRLVTFNTNNKHIIGYIRNNALLAFGNFSEYPQTVTAHTLQAMPFKAHDLIGGKTVSLNQDLTLQPYQVMWLEIA
- glucosylation of L-rhamnose with α-(1→3) linkage [3]: observed for all mutants except I228Y
- activation in the presence of α-L-RhapO-Me [4]: clear activation
- recognition of α-L-RhapO-Me as an acceptor [5, 6]: recognizes α-L-RhapO-Me as an acceptor to form in majority a Dp2
- major reaction occurring ([5]; sole presence of sucrose): Hydrolysis
- highest Dp observed (maltooligosaccharide chains) ([5]; sole presence of sucrose, 146 mM, FIG. 7B): 5

Source: patent publication US20110144317A1, “MUTANTS OF GLYCOSIDE HYDROLASES AND USES THEREOF FOR SYNTHESIZING COMPLEX OLIGOSACCHARIDES AND DISACCHARIDE INTERMEDIATES” (priority 2008, published 2011)
